{"source": "patent US20130244255A1", "about": "(published 2013)", "binders": {"B1": {"name": "CR011 mAb 1.15.1 (IgG2) (antibody)", "heavy": "QVQLQESGPGLVKPSQTLSLTCTVSGGSISSFNYYWSWIRHHPGKGLEWIGYIYYSGSTYSNPSLKSRVTISVDTSKNQFSLTLSSVTAADTAVYYCARGYNWNYFDYWGQGTLVTVSSASTKGPSVFPLAPCSRSTSESTAALGCLVKDYFPEPVTVSWNSGALTSGVHTFPAVLQSSGLYSLSSVVTVPSSNFGTQTYTCNVDHKPSNTKVDKTVERKCCVECPPCPAPPVAGPSVFLFPPKPKDTLMISRTPEVTCVVVDVSHEDPEVQFNWYVDGVEVHNAKTKPREEQFNSTFRVVSVLTVVHQDWLNGKEYKCKVSNKGLPAPIEKTISKTKGQPREPQVYTLPPSREEMTKNQVSLTCLVKGFYPSDIAVEWESNGQPENNYKTTPPMLDSDGSFFLYSKLTVDKSRWQQGNVFSCSVMHEALHNHYTQKSLSLSPGK", "VL": "not shown", "notes": "also called CR011.1.15.1; CR011 IgG2"}}, "key": {"[1]": {"biological_target": "T1, GPNMB (CG56972) as expressed by human cell lines (human, UniProt Q14956 23-492)", "T1 construct": "Endogenous or transfected full-length protein on cells (FACS, killing assays) or in cell lysates (immunoprecipitation, blot); also called native GPNMB protein", "T1 sequence": "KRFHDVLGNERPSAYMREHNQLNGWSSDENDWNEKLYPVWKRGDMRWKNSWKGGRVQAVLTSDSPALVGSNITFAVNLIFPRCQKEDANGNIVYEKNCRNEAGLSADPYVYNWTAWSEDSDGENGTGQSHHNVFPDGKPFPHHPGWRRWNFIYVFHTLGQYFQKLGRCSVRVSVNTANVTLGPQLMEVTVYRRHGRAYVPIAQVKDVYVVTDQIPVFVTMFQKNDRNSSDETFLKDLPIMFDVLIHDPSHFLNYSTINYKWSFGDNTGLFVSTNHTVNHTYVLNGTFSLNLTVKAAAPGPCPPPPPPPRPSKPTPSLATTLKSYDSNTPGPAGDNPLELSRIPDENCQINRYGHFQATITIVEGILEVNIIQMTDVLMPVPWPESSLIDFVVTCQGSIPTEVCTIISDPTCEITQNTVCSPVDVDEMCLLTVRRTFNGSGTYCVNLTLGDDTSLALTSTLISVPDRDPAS", "assay": "FACS on HEMNLP cells"}, "[2]": {"biological_target": "T1, GPNMB (CG56972) as expressed by human …", "assay": "FACS on K562 cells, antibody 1 ug/mL", "protocol": "(§1) Lymphoma or leukemia derived cells were washed twice with ice-cold FACS buffer and resuspended at 1 million cells per assay tube. […] Cells were then washed 2-3 times and resuspended in 1 mL of ice-cold FACS buffer. R-PE-conjugated goat anti-human antibody at 1:100 dilution was added and cells were incubated on ice for 30 min. Cells were washed 3 times with 1 mL of ice-cold FACS buffer, fixed with 0.5-1 mL of 1% formaldehyde in PBS and analyzed by Flow Cytometry."}, "[3]": {"biological_target": "T1, GPNMB (CG56972) as expressed by human …", "assay": "FACS on EOL-1 cells, antibody 1 ug/mL"}, "[4]": {"biological_target": "T1, GPNMB (CG56972) as expressed by human …", "assay": "FACS on UACC-62 cells, antibody 1 ug/mL", "protocol": "The specificity of anti-GPNMB antibodies to cell membrane-bound GPNMB protein expressed by melanoma cancer cell line, UACC-62 was analyzed by FACS analysis. […] Cells were washed twice with PBS (Ca and Mg free), incubated with Versene at 37° C. until cells detached, counted and aliquoted at 1 million cells per assay tube. Cells were then washed twice and resuspended in ice-cold FACS buffer (0.01 M HEPES, 0.15M NaCl, 0.1% NaN₃ and 4% FBS). Primary antibody at 1 μg/mL was added to the cells. Cells were incubated on ice for 30 min, washed 2-3 times and resuspended in 1 mL of ice-cold FACS buffer. R-PE-conjugated goat anti-human antibody (Jackson ImmunoResearch Laboratory) at 1:100 dilution was added and cells were incubated on ice for 30 min. After washing 3 times with 1 mL of ice-cold FACS buffer, cells were fixed with 0.5-1 mL of 1% formaldehyde in PBS and analyzed by flow cytometry."}, "[5]": {"biological_target": "T1, GPNMB (CG56972) as expressed by human …", "assay": "FACS on AML-193 cells, antibody 1 ug/mL"}, "[6]": {"biological_target": "T1, GPNMB (CG56972) as expressed by human …", "assay": "FACS on WSU-NH2 cells, antibody 1 ug/mL", "protocol": "as §1"}, "[7]": {"biological_target": "T1, GPNMB (CG56972) as expressed by human …", "assay": "FACS on CCRF-CEM cells, antibody 1 ug/mL", "protocol": "as §1"}, "[8]": {"biological_target": "T1, GPNMB (CG56972) as expressed by human …", "assay": "FACS on SU-DHL-4 cells, antibody 1 ug/mL"}, "[9]": {"biological_target": "T1, GPNMB (CG56972) as expressed by human …", "assay": "FACS on XF-498, U-118-MG, SNB-78 and SF-539 cells", "protocol": "Quantitative analysis of CG56972 expression on the surface of cell lines was determined by flow cytometry (FACS). […] Cells were fixed in 1% paraformaldehyde/PBS and examined on a Becton Dickinson FACSCalibur flow cytometer. Data analysis was performed with Becton Dickinson Cell Quest software version 3.3 and the geometric mean fluorescence intensity ratio (GMR) was determined for each cell type."}}}
{"binder": "B1", "values": [{"measurement": "Geo Mean Ratio (relative to isotype)", "setting": "[1]", "value": 10.2, "unit": "ratio"}, {"measurement": "Geo Mean Ratio", "setting": "[2]", "value": 2.8, "unit": "ratio"}, {"measurement": "Geo Mean Ratio", "setting": "[3]", "value": 1, "unit": "ratio"}, {"measurement": "Geo Mean Ratio (relative to pK16)", "setting": "[4]", "value": 7.89, "unit": "ratio"}, {"measurement": "Geo Mean Ratio", "setting": "[5]", "value": 1.8, "unit": "ratio"}, {"measurement": "Geo Mean Ratio", "setting": "[6]", "value": 1, "unit": "ratio"}, {"measurement": "Geo Mean Ratio", "setting": "[7]", "value": 10.9, "unit": "ratio"}, {"measurement": "Geo Mean Ratio", "setting": "[8]", "value": 1.8, "unit": "ratio"}, {"measurement": "surface staining, fold above isotype control mAb background", "setting": "[9]", "value": "≥ 1.5", "unit": "fold"}]}
